Measurements published in patent US20090227528A1, “Pulmonary administration of an antithrombotic compound” (priority 2004, published 2009).
Like-named read-outs stand apart in the source and are kept apart here.

Assays:
[1] = Comparative study between intravenous and intratracheal administration of Org 42675 (plasma concentration via anti-Xa activity, amidolytic S2222); type: in vivo, male Wistar rats; conditions: male, Wistar, rat; for AUC(0-inf) / AUC(0-t) / Cmax / bioavailability: 100 nmol/kg; for bioavailability: other: intratracheal, 100 nmol/kg intratracheal vs i.v. (100%), read-out: F (% bioavailabilty)
Procedure: The test was carried out in male Wistar rats of 300-400 gr. The rats were anaesthetised by inhalation of a mixture of O2/N2O/isoflurane, after which the right jugular vein was cannulated. Translumination of the neck enabled visibility of the vocal cords and an oral needle was inserted when the vocal cords were open after which 100 μl/300 gr body weight of a solution prepared from the pharmaceutical formulation of Example 1, diluted with an aqueous 0.9% sodium chloride solution, containing 300 nmol of Org 42675/ml was instilled at approximately 1 cm before the bifurcation of the trachea. The same solution and dose was also used to perform the i.v. study. After i.v. administration blood was sampled at 1, 6, 15, 30 and 60 minutes and after 2, 4, 7 and 24 hours. After intra-tracheal administration blood was sampled at 0.5-1-2-4-7 and 24 hours after administration. Blood was centrifuged and the plasma was siphoned off and stored at −20° C. until use. The concentration of Org 42675 was measured amidolytically with S2222 (Chromogenix, Chromogenics Ltd, Molndal, Sweden) by determination of the anti-Xa activity based on the method of Teien and Lie in the obtained plasma samples against a calibration curve which was made of the stock solution of 300 nmol/ml itself. (Teien A N, Lie M. Evaluation of an amidolytic heparin assay method increased sensitivity by adding purified antithrombin III. Thromb. Res. 1977, 10: 399-410). The concentration in the samples was expressed in nmol/ml and the kinetic parameters were calculated with the noncompartment model of WinNonlin (see Tables 1 and 2). After intratracheal administration the maximum concentration was already obtained at 0.5 hour after administration which was also the first time point of blood collection.

[2] = in vivo; cited from earlier work
[3] = rabbit, in vivo; cited from earlier work
[4] = inhaled or intranasal, 100 nmol/kg intratracheal, individual rats
[5] = inhaled or intranasal, 100 nmol/kg intratracheal, mean (n=3)
[6] = iv, 100 nmol/kg intravenous, individual rats
[7] = iv, 100 nmol/kg intravenous, mean (n=2)

| Compound | Tmax [1, 4] [min] | AUC(0-inf) [1, 4] [µM·h] | AUC(0-t) [1, 4] [µM·h] | Cmax [1, 4] [nM] | AUC(0-inf) [1, 5] [µM·h] | AUC(0-t) [1, 5] [µM·h] | Cmax [1, 5] [nM] | AUC(0-inf) [1, 6] [µM·h] | AUC(0-t) [1, 6] [µM·h] | Cmax [1, 6] [nM] | AUC(0-inf) [1, 7] [µM·h] | AUC(0-t) [1, 7] [µM·h] | Cmax [1, 7] [nM] | bioavailability ([1]; individual rats) [%] | bioavailability ([1]; mean (n=3)) [%] | Absolute bioavailability [2] | bioavailability [3] | pharmacokinetics [3] |
| --- | --- | --- | --- | --- | --- | --- | --- | --- | --- | --- | --- | --- | --- | --- | --- | --- | --- | --- |
| COc1cc(C)c(S(=O)(=O)NC(CC(=O)NCCCC(=O)NCCOCCOCCOCCO[C@H]2[C@H](OC)[C@@H](OC)[C@@H](O[C@H]3[C@H](OC)[C@@H](OC)[C@H](O[C@H]4[C@H](OS(=O)(=O)O)[C@@H](OS(=O)(=O)O)[C@@H](O[C@H]5[C@H](OC)[C@@H](OC)[C@H](O[C@H]6[C@H](OC)[C@@H](OS(=O)(=O)O)[C@@H](OC)O[C@@H]6COS(=O)(=O)O)O[C@H]5C(=O)O)O[C@@H]4COS(=O)(=O)O)O[C@@H]3C(=O)O)O[C@@H]2COS(=O)(=O)O)C(=O)NC(Cc2ccc(C(=N)N)cc2)C(=O)N2CCCCC2)c(C)c1C (stereo partly drawn) [Org 42675] | 30 | 5.53 | 5.4 | 640 | 5.07 ± 0.24 | 4.91 | 770 | 8.46 | 8.35 | 3180 | 7.32 ± 1.03 | 7.32 | 2930 | 75.5 | 71 ± 3 |  |  |  |
| heparin |  |  |  |  |  |  |  |  |  |  |  |  |  |  |  | 35-60% | low | poor |
